Data on three sequences can be found in the supplement of paper PMC6379048.

What all share (assay): EC50 of free RNA motif oligo competing protein binding to immobilised probe
The target in one data set is HSP90AB2P (UniProt Q58FF8). Summed up: (§1)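 Kd was calculated as EC50, taken from a four-parameter log-logistic fit, multiplied by a protein-dependent depletion factor. The assay used HEK293-FT lysate (2.5 mg protein/well) pre-incubated for 1 h at 4°C with free RNA oligos (0 nM to 30 μM), then incubated for 30 min at 4°C with the matching oligos bound through a 5′-amino-C6 linker to NHS-Sepharose beads. Bound proteins were measured by label-free LC-MS/MS and normalised to the control.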

For another data set, the target named is CSNK2B (UniProt P67870). In short, it runs like this: as §1
In a further data set the target is T1, AASS (UniProt Q9UDR5).
T1 sequence: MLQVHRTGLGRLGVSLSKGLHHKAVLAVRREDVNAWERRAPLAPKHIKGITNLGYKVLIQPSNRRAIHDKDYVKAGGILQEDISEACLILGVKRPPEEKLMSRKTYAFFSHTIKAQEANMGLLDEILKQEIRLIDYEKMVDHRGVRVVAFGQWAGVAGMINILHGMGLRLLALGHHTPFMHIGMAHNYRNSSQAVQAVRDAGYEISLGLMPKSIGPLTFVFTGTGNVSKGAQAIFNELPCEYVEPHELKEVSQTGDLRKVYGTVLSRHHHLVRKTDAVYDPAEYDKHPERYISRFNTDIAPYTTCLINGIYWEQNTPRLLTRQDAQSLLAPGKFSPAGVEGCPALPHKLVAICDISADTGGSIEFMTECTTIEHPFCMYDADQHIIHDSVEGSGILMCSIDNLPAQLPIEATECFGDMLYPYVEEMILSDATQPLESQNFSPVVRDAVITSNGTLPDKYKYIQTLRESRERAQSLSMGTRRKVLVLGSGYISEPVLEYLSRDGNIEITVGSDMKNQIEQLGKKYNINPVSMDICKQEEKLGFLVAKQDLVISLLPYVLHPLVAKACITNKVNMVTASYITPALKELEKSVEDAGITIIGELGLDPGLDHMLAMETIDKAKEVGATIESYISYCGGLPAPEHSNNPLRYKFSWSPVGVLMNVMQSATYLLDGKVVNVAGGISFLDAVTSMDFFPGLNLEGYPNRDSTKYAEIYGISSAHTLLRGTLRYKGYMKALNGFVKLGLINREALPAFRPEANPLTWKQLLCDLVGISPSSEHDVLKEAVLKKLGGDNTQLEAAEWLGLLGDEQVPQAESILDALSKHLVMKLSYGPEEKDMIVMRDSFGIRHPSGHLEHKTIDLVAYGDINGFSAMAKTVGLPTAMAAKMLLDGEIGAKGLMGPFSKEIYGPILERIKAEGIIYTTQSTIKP
In short, it runs like this: as §1

The next data set deals with U2AF2 (UniProt P26368). Summed up:
as §1

A further data set has as its target AGO1 (UniProt Q9UL18). In short, it runs like this: as §1
In another data set the target is MRPL11 (UniProt Q9Y3B7). Summed up:
as §1

Another data set addresses RPS10 (UniProt P46783). Summed up:
as §1

For another data set, the target named is MRPL17 (UniProt Q9NRX2). In short, it runs like this: as §1
For a further data set, the target named is T2, CSTF2T (UniProt Q9H0L4).
T2 sequence: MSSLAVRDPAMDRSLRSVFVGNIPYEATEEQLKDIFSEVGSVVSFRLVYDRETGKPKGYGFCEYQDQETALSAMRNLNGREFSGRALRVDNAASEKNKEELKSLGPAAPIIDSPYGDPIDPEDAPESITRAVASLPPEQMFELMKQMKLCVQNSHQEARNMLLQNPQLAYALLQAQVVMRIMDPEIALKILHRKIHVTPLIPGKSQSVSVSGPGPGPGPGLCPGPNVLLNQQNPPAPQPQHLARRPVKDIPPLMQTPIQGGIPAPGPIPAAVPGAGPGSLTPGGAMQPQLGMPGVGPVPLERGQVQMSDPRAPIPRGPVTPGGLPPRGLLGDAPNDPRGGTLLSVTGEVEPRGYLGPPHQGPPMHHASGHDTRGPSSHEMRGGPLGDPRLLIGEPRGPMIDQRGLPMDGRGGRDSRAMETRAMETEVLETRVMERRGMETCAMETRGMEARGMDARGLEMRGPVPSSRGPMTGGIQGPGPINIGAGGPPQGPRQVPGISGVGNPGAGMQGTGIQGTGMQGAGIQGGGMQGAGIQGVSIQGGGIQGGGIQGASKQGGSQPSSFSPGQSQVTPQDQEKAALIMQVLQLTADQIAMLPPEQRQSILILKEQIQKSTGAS
Summed up:
as §1

In another data set the target is MRPS22 (UniProt P82650). In short, it runs like this:
as §1

In a further data set the target is MRPS26 (UniProt Q9BYN8). In short, it runs like this: as §1
The target in a further data set is ATIC (UniProt P31939). In short, it runs like this:
as §1

CSNK2B, sequence (P67870 whole entry): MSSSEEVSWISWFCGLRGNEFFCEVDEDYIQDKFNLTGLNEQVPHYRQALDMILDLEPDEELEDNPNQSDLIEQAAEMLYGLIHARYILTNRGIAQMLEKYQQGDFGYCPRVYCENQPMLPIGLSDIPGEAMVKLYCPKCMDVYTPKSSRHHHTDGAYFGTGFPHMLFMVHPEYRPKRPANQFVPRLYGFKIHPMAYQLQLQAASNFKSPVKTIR
U2AF2, sequence (P26368 whole entry): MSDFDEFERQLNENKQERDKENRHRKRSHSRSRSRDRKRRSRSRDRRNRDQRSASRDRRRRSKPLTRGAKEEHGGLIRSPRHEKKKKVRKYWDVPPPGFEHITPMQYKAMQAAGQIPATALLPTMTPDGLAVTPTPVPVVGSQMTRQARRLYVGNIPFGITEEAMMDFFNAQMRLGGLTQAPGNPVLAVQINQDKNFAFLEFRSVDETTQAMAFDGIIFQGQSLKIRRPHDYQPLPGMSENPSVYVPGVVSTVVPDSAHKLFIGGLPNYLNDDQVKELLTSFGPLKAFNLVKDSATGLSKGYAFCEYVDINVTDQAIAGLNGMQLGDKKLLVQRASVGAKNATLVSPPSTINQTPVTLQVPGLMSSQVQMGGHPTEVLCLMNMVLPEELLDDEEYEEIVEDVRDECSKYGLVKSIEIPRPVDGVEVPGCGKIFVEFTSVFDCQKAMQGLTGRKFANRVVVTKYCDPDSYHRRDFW
HSP90AB2P, sequence (Q58FF8 whole entry): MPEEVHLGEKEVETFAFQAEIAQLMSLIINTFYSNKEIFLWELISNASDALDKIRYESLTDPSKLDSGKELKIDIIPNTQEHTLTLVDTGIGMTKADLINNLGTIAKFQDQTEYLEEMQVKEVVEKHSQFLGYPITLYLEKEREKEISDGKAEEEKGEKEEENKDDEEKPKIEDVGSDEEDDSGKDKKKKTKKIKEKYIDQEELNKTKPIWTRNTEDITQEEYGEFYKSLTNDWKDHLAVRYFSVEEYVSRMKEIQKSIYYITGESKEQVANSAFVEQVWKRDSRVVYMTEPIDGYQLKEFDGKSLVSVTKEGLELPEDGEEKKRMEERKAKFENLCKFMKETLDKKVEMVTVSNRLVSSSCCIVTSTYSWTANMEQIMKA
ATIC, sequence (P31939 whole entry, looked up): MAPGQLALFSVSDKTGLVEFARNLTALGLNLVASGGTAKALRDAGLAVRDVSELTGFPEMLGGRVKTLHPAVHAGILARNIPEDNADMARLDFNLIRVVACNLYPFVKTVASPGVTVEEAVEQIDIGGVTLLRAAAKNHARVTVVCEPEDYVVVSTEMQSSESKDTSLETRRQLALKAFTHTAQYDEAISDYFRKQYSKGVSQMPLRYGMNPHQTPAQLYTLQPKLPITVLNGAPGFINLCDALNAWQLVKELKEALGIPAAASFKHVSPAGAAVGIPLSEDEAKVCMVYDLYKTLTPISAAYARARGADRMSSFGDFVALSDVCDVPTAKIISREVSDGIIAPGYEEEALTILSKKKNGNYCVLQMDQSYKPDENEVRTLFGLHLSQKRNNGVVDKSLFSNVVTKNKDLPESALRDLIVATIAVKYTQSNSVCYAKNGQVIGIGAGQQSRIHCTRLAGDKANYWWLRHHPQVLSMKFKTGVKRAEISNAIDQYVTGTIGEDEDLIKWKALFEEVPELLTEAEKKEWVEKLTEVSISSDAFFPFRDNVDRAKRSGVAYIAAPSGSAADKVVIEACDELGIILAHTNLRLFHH

As a reminder, the EC50 is the concentration needed to bring the measured effect to its halfway point. Low readings indicate a more potent agent, high ones a less potent agent. Turning to AAUAAA, the EC50 stood at 129 nM with HSP90AB2P; 3560 nM with CSNK2B; 9780 nM in the data set with AASS; 1010 nM with U2AF2; 379 nM with AGO1.
Consider CUGUCCU, for which the EC50 was determined as 118 nM in the data set with MRPL11, 226 nM with RPS10 and 51.9 nM with MRPL17.
With UAUUUAU, the EC50 with CSTF2T is 357 nM; in the data set with MRPS22, 85.6 nM; in the data set with MRPS26 it was 35.1 nM; in the data set with ATIC it was 804 nM.
